Assay: label from the status in PepcDB records

MALRQKLGWSEGDLMRSDAKPCSRLMKQTAAIFTVGGALGFWVLCRLHYGPRITVPRSLRWAGCGALSVSTSTAMLVRLFSPECEPQNIAAYDNIKTPQASLP
protein production: failed

MALSKRELDELKPWIEKTVKRVLGFSEPTVVTAALNCVGKGMDKKKAADHLKPFLDDSTLRFVDKLFEAVEEGRSSRHS
protein production: not failed

MALVDDGSQPLVSVIIASYNHEKYIEASIASVAAQTYRNVELLVVDDGSSDGSVELLRGLQAKYGFDLRVQQNQGLSRTLNEAITRARGNLIVPFGSDDIMLPQRLEKQVAHMWDKPEVGICAGNIEIIDSNGRVMPGKEQRKRDLPFRRLDFDDLFLDRKPGPMAPTLMFRREALEKVGGFDPDIRLEDVYIELAVTKAGYVIDILGEVLAQYRKHPTNTYKNARFMVDNVFKTYSQFSDHPDYEQVIMRFRNSMFLKCSNRDKVLARELLSGLPLKYWNEKTFRGIARLFFS
protein production: failed

MALVPVYCLCRQPYNVNHFMIECGLCQDWFHGSCVGIEEENAVDIDIYHCPDCEAVFGPSIMKNWH
protein production: not failed

MALVRKDVVKLAAPIFVEQLFVTLMGMINTMMAGHIGKEAVSAIGMIDSINNIFIAFFSALAVGGTVVVAQYIGQNNIKKANESTKQALYSTIIIAFVITIIMAILKGPLLGFLFGSAEKEVILDANSYFGITLLTYPLITIDLVSNGILRGAGDTKTPMKISILMNVLNVAFTALFIWGIKINGTVVVKSLGITGAALGIATARTIGGIIILIVMVRGSRIVQLKKLTEFKFDMTLLKPIFGIGVPASVESLLFNGGKLIMQIFIVGMGTVAMASNTIVNSISNFLNIPGNSLVIAATALVGQHMGRDDDKGAEKCLSYITKLSTVLLAIVGILSILFSRHLPSPVYWK
protein production: failed

MALVSADSRIAELLTELHQLIKQTQEERSRSEHNLVNIQKTHERMQTENKISPYYRTKLRGLYTTAKADAEAECNILRKALDKIAEIKSLLEERRIAAKIAGLYNDSEPPRKTMRRGVLMTLLQQSAMTLPLWIGKPGDKPPPLCGAIPASGDYVARPGDKVAARVKAVDGDEQWILAEVVSYSHATNKYEVDDIDEEGKERHTLSRRRVIPLPQWKANPETDPEALFQKEQLVLALYPQTTCFYRALIHAPPQRPQDDYSVLFEDTSYADGYSPPLNVAQRYVVACKEPKKK
protein production: failed

MAMRELSQLNRDSDGDEEVWVKHYSSNHQILLVGEGDFSFSHSLATLFGSASNICASSLDSYDVVVRKYKKARSNLKTLKRLGALLLHGVDATTLHFHPDLRYRRFDRVIFNFPHAGFHGRESDSSLIRKHRELVFGFFNGASRLLRANGEVHVSHKNKAPFSEWNLEELASRCFLVLIQRVAFEKNNYPGYENKRGDGRRCDQPFLLGECSTFKFRFSRVAKELYAEKVRSREVKERESMYPEAILNKQPVSFDHRYRLQTEFEAIAGTITLGKSKILWLSQEKGHLHWIFVTTKNVDVYSSKIPESPERHRLLCQDFPVQASQEPLSEYSNRWSGVSREIYNWEVRRMSTSTSFPHPYTGESQERSLSRQSNLITHPPQHW
protein production: failed

MAMWVFGYGSLIWKTGFPFDESLPGFIKGYRRVFHQGSTDHRGTPDFPGRTVTLEAAHEEHLEVREKQYDQKEYLDFFTDSNASEPAVAGVMVYIASPDKKSNNNYLGPAPLEDIAKQIVKAKGPSGPNRDYLFNLEEALAQLGFKDKHVTDLANQVRHILSESEELDIDATAATANNV
protein production: failed

MANDKRTSPPTPRQPAKGGAAGKRQGHAAEGTRKPRARGEERKEKPADGRSATALTANERREIDDKQPPRAAVLHEVIRVQGEHELQRTLAALWWSAVAAGLTIGLSLMGMGLFRAALPEQEWAIIVSSFGYPMGFLAVILARQQLFTENTLTAVLPVMTEPTLEKAWQLLRLWSVVLFGNIVGTLLFAWAVLHLPIFNEAADAAFLEIGREVMHNDLAQMFAKGIVSGWMIATMVWLIPAAEGAKIWIIAMVTYLMALGSFTHIVVGSAEVGYLAFAGEIGWAEFLLKFALPTLGGNIVGGSLIFALISHAQIRSEG
protein production: failed

Reference: a protein production outcome set (Wang et al. 2014)
